Residue numbers refer to the chain shown, from its start.
B1: P1 (GA-rich consensus ES_C1) (ssRNA)
RNA: GAAGAAGAAGAAG
B2: AP1m-probe (ssRNA)
RNA: AUGAUAAUGCC
B3: AP1-probe (ssRNA)
RNA: AGGAGAAGGCC
B4: P3 (A3SS) (ssRNA)
RNA: AUAUAUCUUU
B5: P2 (ES_C2) (ssRNA)
RNA: UUGAUUAUGU

Key:
Experiment in all cases: EMSA; Probes: 400 fmol RNA, 17 ug protein, 1x binding buffer (Molecular Probes E33075 kit), room temp 30 min, 5% native PAGE, SYBR Green; pre-mRNA: 500 ng RNA in 10 mM HEPES, 150 mM NaCl, 3 mM EDTA, 2 mM DTT, 10% glycerol, 1 mM PMSF, room temp 30 min; pH not stated
Conditions in all cases: protein: recombinant; tags: N-terminal His6-SUMO
GRP20 = biological target: T1, GRP20 (Arabidopsis thaliana, UniProt Q7DV38 1-153)
T1 sequence: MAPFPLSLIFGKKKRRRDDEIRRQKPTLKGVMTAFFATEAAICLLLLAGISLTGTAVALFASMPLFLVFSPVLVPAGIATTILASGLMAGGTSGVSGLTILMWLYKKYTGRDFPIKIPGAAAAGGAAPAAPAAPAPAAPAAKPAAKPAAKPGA

GRP20ΔRBD = biological target: T2, GRP20ΔRBD (Arabidopsis thaliana, UniProt Q7DV38 1-153, del92-115)
T2 sequence: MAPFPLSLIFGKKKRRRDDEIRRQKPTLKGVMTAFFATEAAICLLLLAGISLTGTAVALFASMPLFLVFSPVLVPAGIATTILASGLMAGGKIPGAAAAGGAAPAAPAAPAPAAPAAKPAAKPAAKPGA

GRP20ΔHDR = biological target: T3, GRP20ΔHDR (Arabidopsis thaliana, UniProt Q7DV38 1-118)
T3 sequence: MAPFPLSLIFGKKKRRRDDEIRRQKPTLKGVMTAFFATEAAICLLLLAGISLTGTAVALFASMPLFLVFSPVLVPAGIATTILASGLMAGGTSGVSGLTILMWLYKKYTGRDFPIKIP

GRP20 (RBDm) = biological target: T4, GRP20 (RBDm) (Arabidopsis thaliana, UniProt Q7DV38 1-153, M102A;W103A;Y105A;K106A;K107A)
T4 sequence: T1 sequence with M102A, W103A, Y105A, K106A, K107A

Row | Binder | binding result (GRP20) | binding result (GRP20ΔRBD) | binding result (GRP20ΔHDR) | binding result (GRP20 (RBDm))
1 | B1 | binds | no binding | binds | no binding
2 | B2 | no binding | – | – | –
3 | B3 | binds | – | – | –
4 | B4 | binds | – | – | –
5 | B5 | binds | – | – | –
